The record followed here is patent EP1783227A1.

“And” between values parts separate entries of the source, which are not always exact repeats. Identical values can stand only once.

This assay has as its target human CCR2 (endogenous, on THP-1 cells, THP-1 cell membranes, PBMC and whole blood leukocytes) (human) (UniProt P41597). Kind of assay: competition with 0.1 nM [125I]MCP-1 on fresh PBMC (500,000 cells), filtration and scintillation counting.
UniProt P41597, sequence (P41597 whole entry): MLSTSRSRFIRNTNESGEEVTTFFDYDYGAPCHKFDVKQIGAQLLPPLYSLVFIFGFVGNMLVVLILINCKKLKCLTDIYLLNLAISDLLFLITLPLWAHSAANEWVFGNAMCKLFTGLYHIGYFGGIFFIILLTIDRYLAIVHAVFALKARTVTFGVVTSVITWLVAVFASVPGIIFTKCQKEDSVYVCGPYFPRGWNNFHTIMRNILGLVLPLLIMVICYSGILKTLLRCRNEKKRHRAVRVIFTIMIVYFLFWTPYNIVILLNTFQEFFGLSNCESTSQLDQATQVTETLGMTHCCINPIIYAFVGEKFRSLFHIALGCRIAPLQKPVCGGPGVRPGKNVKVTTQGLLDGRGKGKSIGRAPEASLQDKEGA

Usually IC50 stands for the concentration that inhibits the measured activity by half. Higher therefore signals weaker potency in that assay. As for murine monoclonal antibody LS132.1D9, the IC50 is 0.2 nM and 0.04 µg/mL.
